In the DeepSol protein solubility set:

Assay: soluble on expression in E. coli; label from the status in PepcDB or PDB records

Soluble on expression in E. coli, not soluble:
EAEERQRNMINKTHVGLLLIDGQGRIEEINPMAKRYFSLSDSMVRQLQAWSLFDTGNPNATVPLLLKNLTEHQELADITNVETVARRSDGSLFPVLFSLIAVSWKDRRHYLVTLIDIS
MSQLSFADVFNMAREAADNSPVIQAGQQIAEMVPTVQRMMSEQYSRSRFIRVFKDTGRHLGRWEVFSDFLSLAASELDMARIRTPESMENCRKICARYGATDIANMQEMFCLMVCALEAKFHDFLGAIFMELELGDNFRGQYFTPYSVQCLMARMLMPGVRDTIRREGIATVSDPACGAAGMLIAYAECLLEADINPSMHMFGSCIDIDPVAADMAFIQLSLLGIAAEVVTGNTLTMQYRRVRYTPVYYLNAFEKRLADLRRFRAMRDFLRGIQEAA
MTTDSLSQIDTDQDEYGEEIEMASNSLGNLPDVVLQHLAPFLQWSTCRALSEVNLRFRSHFKQHLKEGQALSIKGQVSVGVGDRVNDCQNVSFLSEFYTIRVEMDDNMVVDWTLKLQSGVRTVVHRHYDGNTQTTTTKSVHLSSRDYLEKVLKWILARYQFKKIHLGVQGLAPLFSSYKGEIENVGISDEIEYLKLAEKFRPKHLTLFKPAQNTYNKGFFDLKKFPQLEELRMYGVPLDLDQLIESNISEVAADTIDKDIKLKHVRKIINNWKNGIINYKSIMISPSCSQFGIYCPHNQWSELTDHLVEANALYDNVVNIKEKIGSARYSPRSFEFEVWEADRY
MEIAKEIKDFLTTRRARITPDQVGLPTGGRRRVAGLRREVVAMLAGVSAEYYVQIERGGVSGVSDEVLYAIATALRLDDEETKHLFTLARAASTRPRRRIAPRARVEVPEPVQALVDAMITAPAVVQNGHLDIVAVNALGRALYADVFDRSDGVPNLARFIFLDRRAGETFPDWNHAADDAVAILRSEAARSPYSAAVTGLVGELATRSDEFRTRWATHDIKAHRRGTKRFHHPVVGDLTLRFEALEVASAAGLTLFGFTAEPGSPSEESLRLLSSWAASDRPEHQHS
MSPEGAERYDRNCDHQFQKGHVLIEMMGIKKGDFVLDVGCGTGRQALNVAGIIGPAGKLTGIDPSSYRIELARKKFEGDSSGNVRFLVRQAENLQDIPDNSINHAYFCSSFHWVDDKKTALNEIFRVLRPGGKVGMTTLDRNSPNTMKALIDPILAKFGIERRHEWHRGMKKVTAPELHDLLSGAGFTSISIEPRAVPRKYNSPEEFLQHPEEKDSSRGILRDISNETLEKLRQEITEEFRKAQTPEDIGFGNITLFAIATKAQEGLEHHHHHH
VYAILISDIHVGSKEFCENAFIKFLEWLNGNVETKEEEEIVSRVKYLIIAGDVVDGVGVYPGQYADLTIPDIFDQYEALANLLSHVPKHITMFIAPGNHDAARQAIPQPEFYKEYAKPIYKLKNAVIISNPAVIRLHGRDFLIAHGRGIEDVVGSVPGLTHHKPGLPMVELLKMRHVAPMFGGKVPIAPDPEDLLVIEEVPDVVHMGHVHVYDAVVYRGVQLVNSATWQAQTEFQKMVNIVPTPAKVPVVDIDTAKVVKVLDFSGWC
ARKRAAGGEPRGRELRSQKSKAKSKARREEEEEDAFEDEKPPKKSLLSKVSQGKRKRGCSHPGGSADGPAKKKVAKVTVKSENLKVIKDEALSDGDDLRDFPSDLKKAHHLKRGATMNEDSNEEEEESENDWEEVEELSEPVLGDVRESTAFSRSLLPVKPVEIEIETPEQAKTRERSEKIKLEFETYLRRAMKRFNKGVHEDTHKVHLLCLLANGFYRNNICSQPDLHAIGLSIIPARFTRVLPRDVDTYYLSNLVKWFIGTFTVNAELSASEQDNLQTTLERRFAIYSARDDEELVHIFLLILRALQLLTRLVLSLQPIPLKSATAKGKKPSKERLTADPGGSSETSSQVLENHTKPKTSKGTKQEETFAKGTCRPSAKGKRNKGGRKKRSKPSSSEEDEGPGDKQEKATQRRPHGRERRVASRVSYKEESGSDEAGSGSDFELSSGEASDPSDEDSEPGPPKQRKAPAPQRTKAGSKSASRTHRGSHRKDPSLPVASSSSSSSKRGKKMCSDGEKAEKRSIAGIDQWLEVFCEQEEKWVCVDCVHGVVGQPLTCYKYATKPMTYVVGIDSDGWVRDVTQRYDPVWMTVTRKCRVDAEWWAETLRPYQSPFMDREKKEDLEFQAKHMDQPLPTAIGLYKNHPLYALKRHLLKYEAIYPETAAILGYCRGEAVYSRDCVHTLHSRDTWLKKARVVRLGEVPYKMVKGFSNRARKARLAEPQLREENDLGLFGYWQTEEYQPPVAVDGKVPRNEFGNVYLFLPSMMPIGCVQLNLPNLHRVARKLDIDCVQAITGFDFHGGYSHPVTDGYIVCEEFKDVLLTAWENEQAVIERKEKEKKEKRALGNWKLLAKGLLIRERLKRRYGPKSEAAAPHTDAGGGLSSDEEEGTSSQAEAARILAASWPQNREDEEKQKLKGGPKKTKREKKAAASHLFPFEKL
MLVGLDIGTSKIVAIVAEVLEDGQLNIVGMGHTPSRGLKRGMVVNIESTVQAIQRALEEAELMADCKIHEVFVGIAGSHIKSVNSHGMVAIKDREVTKMDIDRVIETARAVTIPPDH
AAPFDVTAPQEPVLALVGSDAELTCGFSPNASSEYMELLWFRQTRSTAVLLYRDGQEQEGQQMTEYRGRATLATAGLLDGRATLLIRDVRVSDQGEYRCLFKDNDDFEEAAVYLKVAAVGSDPQISMTVQENGEMELECTSSGWYPEPQVQWRTGNREMLPSTSESKKHNEEGLFTVAVSMMIRDSSIKNMSCCIQNILLGQGKEVEISLPAPFVPRLTPW
MGSDKIHHHHHHMYLKVYKEDVIEGLQKAANIIPAKTGAAYLRSIWLNAADGTLSVMATDSNIEFRGTYTAEVTEPGLAGVQGRAFVDLLRKLPAGEIVLQLDAEANVLRIEQGRRKYKLPVNDPVWFQNFSDFPADGAVVWSGDFLQELIDRIAFCISDEDAVEAIACLFMKPVAEGRIEACGLNGHQFAMLRFLHDDLHAKLPAEGVLVQKKYLGELKKWLGADEIELNISEKRMHLRTGDGRETFSLPLSSYQYPDYMNFIAKLQGEGVSNLEVDRKEGMDALDRLQIFNSDNNRCTYFDLSGGEVVLTAQGQDVGSASESLEASYDGDIRRIAFPTRNLIDIMNHYQSGRLRLTLTGAEGPCGISGEEDPEYQVIVMPMKIVEETYYSEEEV
MKKSNIKTLEQFKDQNYGKKGTAKRDSLEMGYDTFKIGALIQEARIEKGMTQEELAIKCGTTKSYISRIENNIKEVRISTLQKIVELGFGGQLQLSIKF
MYWERGLHMYKASAVVPTGYVRVGNTAPLVGEDTQRYASFWGDGYDVYRQLRWQQIPEKQRKAFKKAAKSKKTVMFAGREYGISKQNLSDVWDDFEDAMELKAFPCLSSLFLTKWHKNLYDSGLTKTSTALPRLSSKRTIL
MSSDEQKPEVNGYWTSVKNFSSSAATSINNATTSAWNSEFAASTSATVKDFSTSATKSIGEAATSAWNSETASTATSAISEAAKNARSWYDSSSEENEELEPSGHGFRGGIAALSRNASHYVISTVGRSSNILNIFDKTNKSSLGNPRWWIRFDRPHGNVDFHHININKAVTGLKDPHIPLTPTTAKTIGVLGKVAEKANDVAPLLTTAAMIYEAYRVGQEVHKDMNHGTTRNTIKTLAATSGTYSSGSIGAYAGSVIGTSIFPGLGTIFGAVVGGIVGGHFGGHYSHVATENALNHVKWDVVTFVCDGCDEEYTWKKYQEIEGTCCTRFNNKRQDSVDYWFKKLETNHDF
MATIKLKFRPSTVQGKAGTLCYQLCHRQENRQITTDMRIFPEWWNETKRELVAVPGNERVLTAYRKRAEKEMRDIREIIRELDCSGETYTLSEILNRYRSLPSEPGFLYYMKKEMETLWENGQYGTSRNYRRALNSFSAFLDGDDIPFSSLDSALACRYESWLWQQKVARNSSSFYMRILRAVYNKAVKQGLAVQTFPFREVYTGVARTSKRAVDEETIRKLQRLDLSGSPALALSRDMFVFSYCARGMAFVDMAYLKKEDVGGGRITYYRHKTGQYLTLRIEPCMVTILERYGRTCPESPYLFPILTDEQPELAYRQYRTGLNYHNRKLKRLGKLLGEPLPLSSYTPRHSWATAARNHDVPIAVISAGMGHSSERTTLIYLDSLDNAIIDNANEKILKGLNDTISM
MEELGYVTDAEINAKLAELKGKVPSVVINELREKLMAKKDSLTPRQLDEIVKRVLEAYGSQAAKYEQISKRVDELGKKLSDLSSQLARLVEALEEKKFAVHEKKAEAVAEKAAEVSEKIEKIEEMLEEKPRKSEIEKKLEELHRKIEELSERVAKEKVEETKARIEELEEKIAKGEEIKPEEIKEIEEEVEELGEFEEAPVEEIVVEEEKPPEPVEEVPVVEEKKEEVIEEVPVEEVVEEEKVPSHVVEEEKVEEEGGREMAEKMKIPEDIASLLFEEEPRKARLEEIPDDVVSIMIALKWLGFLIDRVGIQNLEKVLEFYYDIGWISEKVFNQLLRFAKGTRPHHRDPEWKPAEKLTVQDHLISLLFIERLRGLRITRDVLDKLEREIKMLEKTLDEFYGV
MESTGSVGEAPGGPRVLVVGGGIAGLGAAQRLCGHSAFPHLRVLEATARAGGRIRSERCFGGVVEVGAHWIHGPSRGNPVFQLAAEYGLLGEKELSQENQLVETGGHVGLPSVSYASSGASVSLQLVAEMATLFYGLIDQTREFLHAAETPVPSVGEYLKKEIGQHVAGWTEDEETRKLKLAVLNSFFNLECCVSGTHSMDLVALAPFGEYTVLPGLDCTFSKGYQGLTNCMMAALPEDTVVFEKPVKTIHWNGSFQEAAFPGETFPVSVECEDGDRFPAHHVIVTVPLGFLREHLDTFFDPPLPAEKAEAIRKIGFGTNNKIFLEFEEPFWEPDCQLIQLVWEDTSPLEDAAPELQDAWFRKLIGFVVLPAFASVHVLCGFIAGLESEFMETLSDEEVLLCLTQVLRRVTGNPRLPAPKSVLRSRWHSAPYTRGSYSYVAVGSTGGDLDLLAQPLPADGAGAQLQILFAGEATHRTFYSTTHGALLSGWREADRLLSLWAPQVQQPRPRL
MPVSDQLIDQLLADYESPQDLLGEQGILRQLTKKLAERALEAEMELHLGYAKHDAAGFNTGNSRNGKSRKSVRSIHGDIELETPRDRNGSFEPKLIKKGEKQLGGFDERIVSLYARGMSTRDIQAHFEETYGVEVSPTFISQITNAVLDEVKAWQLRPLAPVYPIVYLDCLVVRSRDSGSIQNKSVYLALGVNTDGEKELLGLWIAQTEGAKFWLSVMNELKNRGVEDIFIACVDGLKGFPDAIEAVYPKTQVQLCIVHQIRNSLRFVSWKERKAVAADLKTIYGAATLQQAELALEQFAKTWDKQHPSISKSWRENWTRLSVFFDYPPEIRKVIYTTNAIESLNASLRQVTKTRRSFPSDDAVLKLLYLALHQIAKKWTMPLRDWKPAMTQFMIMYSDRVSL

Soluble on expression in E. coli, soluble:
MGHHHHHHSHMQEQVLYPLEAEVTMVTSFQDADPMGVIYHGNFFRYFEEARRVLMEKIQYGYRDMQDSGYMWPIIDTRVKYVKAIPFNHTIRITAQLTEWENRLRVDYVIYDAETNQRMCKAHTTQVAVSIEKQEMCFVSPAVFLDKVEQWHNHGSLN
MNEFEDLLNSVSEVNPGDVVTAEVLTVDGEQANLVIDGTGVEAVLTLRELTNDRNADINDFVKAGDKVEVLVLRQVVGKDTDTVTFLVSKKRLEARKAWDKLVGREGDVVTVKGTRAVKGGLSVEFEGLRGFIPASMIDTRFVRNTEKFVGQQFEAKIKEIDPSENRFILSRRDVVEAAAAKAREEVFSRLAVGDIVTGTVARLTSFGAFIDLGGVDGLVHITELSHERNVSPKSVVTVGEEIQVKVLAIDEEAGRVSLSLKATTPGPWDGVEQKLAAGDVIEGKVKRLTDFGAFVEVLPGIDGLVHISQISHKRVENPKDVLSVGQDVTVKVLDVNTADERVSLSIKALEERPAQDESNGEKRQSRPRRQKRQDKRDYELPETQTGFSMADLFGDIELLEHHHHHH
AKVEVGDEVGNFKFYPDSITVSAGEAVEFTLVGETPHNIVFDIPAGAPGTVASELKAASMDENDLLSEDEPSFKAKVSTPGTYTFYCTPHKSANMKGTLTVK
